Measurements: the supplement of paper PMC10567573
± gives the standard deviation.

Assay: protein stability index of a GFP-peptide fusion (GPS, HEK-293T) (PSI 1-6); higher = more stable
[1] = treatment: DMSO, c terminus: a fixed tail appended
[2] = treatment: MLN4924 1 uM, 8 h, c terminus: a fixed tail appended
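Also: 24-mer peptide tiles fused after GFP, lentivirally expressed, FACS-sorted into six equal bins by GFP/DsRed ratio, decoded by Illumina sequencing, PSI is the read-weighted mean bin number.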

Sequence | protein stability index [1] | protein stability index [2] | protein stability index (treatment: DMSO, c terminus: native) | protein stability index (treatment: MLN4924 1 uM, 8 h, c terminus: native)
IFPRLSFKDKSTYIESSTKVYDDM [CLPTM1] | 3.03 ± 0.23 | 3.15 ± 0.25 | – | –
IFSQSSALILHQRIHSGKKPYACD [ZNF396] | 2.32 ± 0.097 | 2.53 ± 0.24 | – | –
IGDVHLAPFTDEQLYMEQFTKANF [CARM1] | 3 ± 0.2 | 3.03 ± 0.36 | – | –
IGMSAAGMGLTGTMGMGMPNIAMT [CLINT1] | 2.62 ± 0.079 | 2.56 ± 0.13 | – | –
IGSSSEKEIDDVIDEIISLESSYN [TFE3] | 4.37 ± 0.25 | 4.4 ± 0.22 | – | –
IHGENIICEATQIIDYLEQTFLDE [GDAP1] | 2.82 ± 0.22 | 3.12 ± 0.21 | – | –
IHPKSIDLDNYFTARRLLSQVRAL [NFE2L1] | 2.25 ± 0.32 | 2.54 ± 0.18 | – | –
IHQESGKAPSTDDATWAAVAACTK [C10orf62] | 4.56 ± 0.18 | 4.72 ± 0.32 | – | –
IIELLEKDGMAFQEALDPGPFDQG [ELF3] | 3.58 ± 0.39 | 3.44 ± 0.32 | – | –
IIIRSEVPGIFCAGADLKERAKMS [AUH] | 2.36 ± 0.43 | 1.95 ± 0.21 | – | –
ILFLNKKDLFEEKIKKSPLTICYP [GNAI1] | 2.43 ± 0.9 | 2.21 ± 0.75 | – | –
ILFLVIGGMLNFMMHDQRTGPAWN [SOAT2] | 3.27 ± 0.46 | 3.26 ± 0.55 | – | –
ILSGLDDMSIGGNLSKTQNMERFG [CDC14A] | 3.24 ± 0.22 | 3.08 ± 0.26 | – | –
IMDRFDCQYLMATFVNVYIASFIR [CDS2] | 3.423 ± 0.005 | 3.33 ± 0.31 | – | –
INYKLKSVAHLPWRMLTYKALNTF [CLPTM1] | 2.44 ± 0.65 | 2.31 ± 0.36 | – | –
IPDAFWWAVVTMTTVGYGDMKPIT [KCNA4] | 3.8 ± 0.42 | 3.53 ± 0.16 | – | –
IPGEHFWLLLLTRGLVGVGEASYS [SPNS1] | 3.1 ± 0.47 | 2.37 ± 0.58 | – | –
IPPAAMLDQAPKARKYFERLPGGG [DYRK1B] | 3.72 ± 0.27 | 3.64 ± 0.061 | – | –
IQLGVTPPGYSAWIKEEAAERYLY [SLC6A17] | 2.31 ± 0.25 | 2.36 ± 0.15 | – | –
IRQYRLKKISKEEKTPGCVKIKKC [KRAS] | – | 3.31 ± 0.24 | – | –
ISKGEEPRAGKEESGVSVSNSQPT [SLC29A1] | 5.48 ± 0.24 | 5.52 ± 0.22 | – | –
ITCVSGAIVDLISRQYDKFLTHFI [FBXO33] | 2.85 ± 0.53 | 3.13 ± 0.44 | – | –

Sequence | protein stability index [1] | protein stability index [2] | protein stability index (treatment: DMSO, c terminus: native) | protein stability index (treatment: MLN4924 1 uM, 8 h, c terminus: native)
KAAQQGKQEENDVVEKLNLFLDLL [SNX8] | 2.45 ± 0.076 | 2.64 ± 0.34 | – | –
KAIKARGEVIHCKLRAMKELSEAA [STX11] | 3.32 ± 0.29 | 3.6 ± 0.2 | – | –
KALFTCPFNGDCRITKDNRRHCQA [VDR] | 2.84 ± 0.31 | 3.21 ± 0.42 | – | –
KAMESQRAYRFVQGKDWGFKKFIR [SPOPL] | 2.22 ± 0.38 | 2.09 ± 0.21 | – | –
KDKLGVWVYKNKLIFFGGYGYLPE [KLHDC2] | 2.25 ± 0.59 | 3.11 ± 1.6 | – | –
KDLILRFCIDSENRIGNSGVEEIK [STK38L] | 2.472 ± 0.02 | 2.85 ± 0.42 | – | –
KERALSAPWLSLFPPEGNMEDKEM [ZNF263] | 4.82 ± 0.057 | 4.72 ± 0.18 | – | –
KEYTTRTQAPPSVILGVTNPFFAK [DENND6A] | 2.81 ± 0.24 | 2.738 ± 0.021 | – | –
KFDHIEVRDGPFGFSPIIGRFCGQ [NETO1] | 2.3 ± 0.28 | 2.44 ± 0.34 | – | –
KHGKRKRGRPRKLSKEYWDCLEGK [ELF3] | 4.18 ± 0.44 | 4.38 ± 0.18 | – | –
KHPQPAPAVTPDPWGVQGGQESEV [PKD2L1] | 5.24 ± 0.22 | 4.97 ± 0.21 | – | –
KHSTFGQSLTQRLHALKLRSPDAS [GNAS] | 3.37 ± 0.29 | 3.44 ± 0.2 | – | –
KKEKIIEDKTFGLKNKKGAKQQKF [ZC3H15] | 4.5 ± 0.27 | 4.33 ± 0.19 | – | –
KKINSNQLENEQSQENSINPIQKE [SPANXN3] | 5.66 ± 0.29 | 5.58 ± 0.26 | – | –
KKLEKYLQKLSALLMTADILAETG [ELOA2] | 2.74 ± 0.79 | 2.6 ± 0.055 | – | –
KKTMSTFHNLVSLNLNYNCISDEL [FBXO39] | 2.09 ± 0.21 | 2.18 ± 0.22 | – | –
KLEEVVNKKHGEAEKKKPKTQIVC [ZC3H15] | 4.64 ± 0.18 | 4.63 ± 0.24 | – | –
KLEWAIDEDELRKSLSELVDDKFG [PSD2] | 4.19 ± 0.086 | 4.09 ± 0.26 | – | –
KLILGMPTYGRSFTLASSSDTRVG [CHIT1] | 2.42 ± 0.36 | 2.46 ± 0.22 | – | –
KLMKILQPQDVDLALDSGASLLHL [RIPK4] | 2.11 ± 0.12 | 2.52 ± 0.21 | – | –
KLVRSPSGLRMVPEHRAFGSPFGL [ZFYVE21] | 2.32 ± 0.076 | 2.28 ± 0.22 | – | –
KMQQSKNQVVSSTNGELNTDDPTA [CSNK1G3] | 5.37 ± 0.21 | 5.34 ± 0.13 | – | –

Sequence | protein stability index [1] | protein stability index [2] | protein stability index (treatment: DMSO, c terminus: native) | protein stability index (treatment: MLN4924 1 uM, 8 h, c terminus: native)
KNDSLRKRYDGLKYDVKKVEEVVY [TSN] | 3.18 ± 0.22 | 3.32 ± 0.33 | – | –
KNGEWGTVCDDKWDLVSASVVCRE [LOXL2] | 3.85 ± 0.63 | 3.8 ± 0.73 | – | –
KNHVGKPLLKMDLNSEQAEQLERI [FAM98B] | 4.8 ± 0.16 | 4.67 ± 0.19 | – | –
KNWRNFASKWGMSYDELCFLEQRP [EDARADD] | 2.06 ± 0.18 | 2.02 ± 0.23 | – | –
KPEEPPQNLLREKIMKLPLPESLK [PCMTD1] | 4.57 ± 0.43 | 4.76 ± 0.13 | – | –
KPKMYFMTMIVSLAAVAWVGQQVH [ARL6IP1] | 2.83 ± 0.48 | 3.28 ± 0.69 | – | –
KPYIAAHFDVLPTEFTLGDDKHYG [PTPRD] | 3.28 ± 0.49 | 3.44 ± 0.14 | – | –
KQLEFGLKEAPVQDQGYKTLRLRE [ZNF8] | 4.3 ± 0.31 | 4.27 ± 0.22 | – | –
KQLEPLVAPLADGKVAVGQDDLTV [VPS39] | 5.14 ± 0.27 | 5.18 ± 0.21 | – | –
KREAGNLTKATAPDQKSSGGRDS [SSNA1] | – | – | 5.07 ± 0.23 | 5.25 ± 0.17
KRFQLTKLPPYLIFCIKRFTKNNF [USP39] | 2 ± 0.31 | 2.78 ± 0.81 | – | –
KRKMVSWEASSLGLVTAALHMVIV [KMT2E] | 2.53 ± 0.62 | 3.33 ± 0.57 | – | –
KRSAPSGPVRSSSGMGGRAPVSRG [RBMX] | 4.59 ± 0.25 | 4.57 ± 0.16 | – | –
KSERRNLLEDDSDEEEDFFLRGPS [VAMP4] | 5.09 ± 0.26 | 5.15 ± 0.66 | – | –
KTSSSSKAGFTASPFTNLLNGSSQ [CDC14A] | 3.46 ± 0.27 | 3.51 ± 0.31 | – | –
KTVLMIAIQLLSRMEYVHSKNLIY [CSNK1G1] | 3.04 ± 0.1 | 3.23 ± 0.54 | – | –
KVHIGYLPNKQVLGLSKLARIVEI [GCH1] | 2.84 ± 1.1 | 2.48 ± 0.8 | – | –
KVNSKKMLGKYNTPVSYRMAKTLV [ACSBG2] | 1.81 ± 0.082 | 2.05 ± 0.42 | – | –
KVPREKDEPGKGGFWRIDPQYAER [FOXJ1] | 4.12 ± 0.34 | 4.2 ± 0.21 | – | –
KVQFNLQFTKPNASLGDVQSGATI [SASS6] | 2.45 ± 0.37 | 2.66 ± 0.45 | – | –
KVSEGQADIMISFVRGDHRDNSPF [MMP1] | 3.1 ± 0.41 | 3.09 ± 0.52 | – | –
